Experimental data reported in paper PMC5404824, “Engineering Nucleotide Specificity of Succinyl-CoA Synthetase in Blastocystis: The Emerging Role of Gatekeeper Residues” (Biochemistry, 2016).

Tested on: Nc1nc2c(ncn2[C@@H]2O[C@H](COP(=O)(O)OP(=O)(O)OP(=O)(O)O)[C@@H](O)[C@H]2O)c(=O)[nH]1
Assay: purified protein
Type: biochemical, Blastocystis hominis
Conditions: 129 μM CoA, 10 mM succinate, 50 mM KCl, 10 mM MgCl2, 50 mM Tris-HCl pH 7.4, 30 nM enzyme

Substance: Blastocystis SCS (succinyl-CoA synthetase, SCSα + SCSβ) (Blastocystis sp. ATCC 50177/Nand II; K128D/K60E)
- Km: 143 ± 17 µM
- kcat: 0.0195 ± 0.001 s⁻¹
- kcat/Km: 136 M⁻¹ s⁻¹

Substance: Blastocystis SCS (succinyl-CoA synthetase, SCSα + SCSβ) (Blastocystis sp. ATCC 50177/Nand II; K128D/K60E/L241F/V127L)
- Km: 82 ± 12 µM
- kcat: 0.0078 ± 0.0004 s⁻¹
- kcat/Km: 96 M⁻¹ s⁻¹
